This passage reports percent dimer, stoichiometry N and percent tetramer results from publication PMC4700671.

“And” between values parts separate entries of the source, which are not always exact repeats. Identical values can stand only once.

The target of assay [1] is nonmyristoylated MMTV MA (matrix protein of mouse mammary tumor virus), wild type, with C-terminal His-tag (mouse mammary tumor virus) (UniProt P10258). In words: AUC; sedimentation velocity, protein at 5.0 mg/mL in 50 mM Na2HPO4, 300 mM NaCl, 2.5 mM TCEP, pH 6.0; 50,000 rpm, 4 °C; absorbance at 250 nm; c(s) continuous size distribution; monomer to dimer (and tetramer).
Assay [2] deals with myristoylated MMTV MA (matrix protein of mouse mammary tumor virus), wild type, with C-terminal His-tag (mouse mammary tumor virus) (UniProt P10258). In words: AUC; sedimentation velocity, protein at 0.5 mg/mL in 50 mM Na2HPO4, 300 mM NaCl, 2.5 mM TCEP, pH 6.0; 50,000 rpm, 4 °C; absorbance at 280 nm; c(s) continuous size distribution; monomer to dimer.
The target is the same in assay [3]. Description: AUC; sedimentation velocity, protein at 5.0 mg/mL in 50 mM Na2HPO4, 300 mM NaCl, 2.5 mM TCEP, pH 6.0; 50,000 rpm, 4 °C; absorbance at 250 nm; c(s) continuous size distribution; monomer to dimer (and tetramer).
Assay [4] has as its target myristoylated MMTV MA triple mutant L11N/F12N/V15N, with C-terminal His-tag (mouse mammary tumor virus) (UniProt P10258). In words: AUC; sedimentation velocity, protein at 0.5 mg/mL in 50 mM Na2HPO4, 300 mM NaCl, 2.5 mM TCEP, pH 6.0; 50,000 rpm, 4 °C; absorbance at 280 nm; c(s) continuous size distribution; monomer to dimer.
Assay [5] has the same target. In words: AUC; sedimentation velocity, protein at 5.0 mg/mL in 50 mM Na2HPO4, 300 mM NaCl, 2.5 mM TCEP, pH 6.0; 50,000 rpm, 4 °C; absorbance at 250 nm; c(s) continuous size distribution; monomer to dimer (and tetramer).

For orientation: stoichiometry N means a count of units in the complex or per binding partner. Regarding “nonmyristoylated MMTV MA (matrix protein of mouse mammary tumor virus), wild type, with C-terminal His-tag (from UniProt P10258 2-92) (domain or fragment)”, in assay [1], the percent dimer was 26% and the stoichiometry N worked out at 2.
The substance “myristoylated MMTV MA (matrix protein of mouse mammary tumor virus), wild type, with C-terminal His-tag (from UniProt P10258 2-92) (domain or fragment)” came in with a stoichiometry N in assay [2] of 2. Further, in assay [3], the percent dimer is 98%; the percent tetramer turned out to be 2%; the stoichiometry N is 2 and 4.
On to “myristoylated MMTV MA triple mutant L11N/F12N/V15N, with C-terminal His-tag (from UniProt P10258 2-92) (domain or fragment)”, for which, in assay [4], the percent dimer was 48% and the stoichiometry N worked out at 2. Further, the stoichiometry N in assay [5] was 2.
